The RNAGym collection of RNA variant scans (doi:10.1093/molbev/msab373)

B1: Azoarcus group I ribozyme (parent)
chain: GUGCCUUGCGCCGGGAAACCACGCAAGGGAUGGUGUCAAAUUCGGCGAAACCUAAGCGCCCGCCCGGGCGUAUGGCAACGCCGAGCCAAGCUUCGGCGCCUGCGCCGAUGAAGGUGUAGAGACUAGACGGCACCCACCUAAGGCAAACGCUAUGGUGAAGGCAUAGUCCAGGGAGUGGCGAAAGUCACACAAACCGG

Variants of: B1
Experiment: reverse-splicing fitness (ratio to wild type); higher = more active; in vitro selection; Mg2+ level not given
In short: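 An in vitro group I ribozyme library with randomized positions was T7-transcribed and gel-purified. In triplicate, 10 pmol RNA in EPPS pH 7.5 was reacted with 50 pmoles of a 30-nt RNA substrate for 1 h at 37 °C across several added MgCl2 levels (1–48 mM), then stopped with EDTA. Products were reverse transcribed from a substrate-complementary primer, PCR-amplified and sequenced (HiSeq 4000). Fitness is a variant's read proportion after selection over that before, normalised to wild type.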

| Variant | reverse-splicing fitness |
| --- | --- |
| C82G A120G A145C C150G C169U U176C | 0.0125 |
| C82G A120G A145C C150G C169U U176G | 0.00495 |
| C82G A120G A145C C169G U176C | 0.0224 |
| C82G A120G A145C C169G U176A | 0.0291 |
| C82G A120G A145C C169G U176G | 0.00393 |
| C82G A120G A145C C150A | 0.00852 |
| C82G A120G A145C C150U | 0.0111 |
| C82G A120G A145C C150G | 0.00798 |
| C82G A120C C150U C169G U176A | 0.0141 |
| C82G A120C C150U C169G U176C | 0.0162 |
| C82G A120C C150U C169G U176G | 0.0048 |
| C82G A120G C150U C169U | 0.0164 |
| C82G A120G C150U C169G | 0.0318 |
| C82G A120G C150U C169A | 0.0193 |
| C82G A120G C150A C169G U176C | 0.0228 |
| C82G A120G C150A C169G U176A | 0.0215 |
| C82G A120G C150A C169G U176G | 0.00479 |
| C82G A120C C150U C169A U176A | 0.0177 |
| C82G A120C C150U C169A U176C | 0.0133 |
| C82G A120C C150U C169A U176G | 0.00618 |
| C82G A120G A145U C150G C169U U176G | 0.00487 |

| Variant | reverse-splicing fitness |
| --- | --- |
| C82G A120G A145U C150G C169U U176A | 0.0125 |
| C82G A120G A145U C150G C169U U176C | 0.0129 |
| C82G A120G A145C C150G U176C | 0.00894 |
| C82G A120G A145C C150G U176A | 0.00713 |
| C82G A120G A145C C150G U176G | 0.00333 |
| C82G A120G C150G C169A U176A | 0.0109 |
| C82G A120G C150G C169A U176C | 0.0102 |
| C82G A120G C150G C169A U176G | 0.00588 |
| C82G A120G A145G C150A C169A U176G | 0.00618 |
| C82G A120G A145G C150A C169A U176C | 0.0228 |
| C82G A120G A145G C150A C169A U176A | 0.0199 |
| C82G A120G A145U C150A C169U U176C | 0.0145 |
| C82G A120G A145U C150A C169U U176G | 0.00418 |
| C82G A120G A145U C150A C169U U176A | 0.02 |
| C82G A120G A145U C150U C169G U176G | 0.00476 |
| C82G A120G A145U C150U C169G U176A | 0.015 |
| C82G A120G A145U C150U C169G U176C | 0.0218 |
| C82G A120G C169G U176C | 0.0324 |
| C82G A120G C169G U176G | 0.00375 |
| C82G A120G C169G U176A | 0.0234 |
| C82G A120G A145U U176G | 0.0047 |

| Variant | reverse-splicing fitness |
| --- | --- |
| C82G A120G A145U U176A | 0.0157 |
| C82G A120G A145U U176C | 0.0191 |
| C82G A120G A145U C150G C169A | 0.0112 |
| C82G A120G A145U C150G C169U | 0.01 |
| C82G A120G A145U C150G C169G | 0.0107 |
| C82G A120G A145U C150G U176G | 0.00404 |
| C82G A120G A145U C150G U176C | 0.0103 |
| C82G A120G A145U C150G U176A | 0.00666 |
| C82G A120G A145U C150G C169A U176C | 0.0121 |
| C82G A120G A145U C150G C169A U176G | 0.00431 |
| C82G A120G A145U C150G C169A U176A | 0.0112 |
| C82G A120C U176G | 0.0151 |
| C82G A120C U176C | 0.107 |
| C82G A120C U176A | 0.0764 |
| C82G A120G A145G U176C | 0.0211 |
| C82G A120G A145G U176G | 0.00636 |
| C82G A120G A145G U176A | 0.0129 |
| C82G A120G A145U C150U C169U | 0.0183 |
| C82G A120G A145U C150U C169G | 0.0343 |
| C82G A120G A145U C150U C169A | 0.0199 |
| C82G A120G C150G C169G U176G | 0.00466 |

| Variant | reverse-splicing fitness |
| --- | --- |
| C82G A120G C150G C169G U176A | 0.00768 |
| C82G A120G C150G C169G U176C | 0.00511 |
| C82G A120G A145G C169G U176C | 0.0345 |
| C82G A120G A145G C169G U176A | 0.0221 |
| C82G A120G A145G C169G U176G | 0.00379 |
| C82G A120U A145C C150A | 0.00856 |
| C82G A120G C150G C169U U176C | 0.0158 |
| C82G A120G C150G C169U U176G | 0.00645 |
| C82G A120G C150G C169U U176A | 0.0113 |
| C82G A120G A145C C150G C169A U176C | 0.00681 |
| C82G A120G A145C C150G C169A U176G | 0.00487 |
| C82G A120G A145C C150G C169A U176A | 0.00893 |
| C82G A120G A145C C169U U176G | 0.00392 |
| C82G A120G A145C C169U U176C | 0.0185 |
| C82G A120G A145C C169U U176A | 0.0207 |
| C82G A120G A145C U176C | 0.0158 |
| C82G A120G A145C U176A | 0.0133 |
| C82G A120G A145C U176G | 0.00484 |
| C82G A120G A145C C150U C169U U176C | 0.0138 |
| C82G A120G A145C C150U C169U U176A | 0.0184 |
| C82G A120G A145C C150U C169U U176G | 0.00404 |
